Biological target: T1, interaction between TIM-3 and Galectin-9 (Homo sapiens, UniProt Q8TDQ0)
T1 construct: purchased R&D Systems
Experiment: MesoScale competition assay, Gal9-SULFOTag binding to coated TIM-3 fusion protein
Settings: serial dilutions, Galectin-9 SULFOTag 100 nM, FIG. 1
Method: TIM-3 fusion protein (R&D Systems) was coated on a standard MesoScale 96 well plate (Meso Scale Discovery) at 2 μg/ml in PBS (Phosphate Buffered Saline) and incubated for six hours at room temperature. The plate was washed three times with PBST (PBS buffer containing 0.05% Tween-20) and blocked with PBS containing 5% Probumin (Millipore) overnight at 4° C. […] The plate was then washed three times with PBST, and Galectin-9 labeled with MSD SULFOTag (Meso Scale Discovery) as per manufacturer's instructions, diluted in Assay Diluent to 100 nM, was added to the plate for one hour at room temperature on an orbital shaker. The plate was again washed three times with PBST, and Read Buffer T (1×) was added to the plate. The plate was read on MA600 Imager, and competition was assessed as a measure of the ability of the antibody to block Gal9-SULFOTag signal to TIM-3 receptor.

- ability to block Gal9-SULFOTag signal to TIM-3 receptor (competition): did not
B1: Galectin-9 protein: control recombinant human Galectin-9 protein, unlabeled (protein)
chain: AFSGSQAPYLSPAVPFSGTIQGGLQDGLQITVNGTVLSSSGTRFAVNFQTGFSGNDIAFHFNPRFEDGGYVVCNTRQNGSWGPEERKTHMPFQKGMPFDLCFLVQSSDFKVMVNGILFVQYFHRVPFHRVDTISVNGSVQLSYISFQPPGVWPANPAPITQTVIHTVQSAPGQMFSTPAIPPMMYPHPAYPMPFITTILGGLYPSKSILLSGTVLPSAQRFHINLCSGNHIAFHLNPRFDENAVVRNTQIDNSWGSEERSLPRKMPFVRGQSFSVWILCEAHCLKVAVDGQHLFEYYHRLRNLPTINRLEVGGDIQLTHVQT
